Data from a protein production outcome set (Wang et al. 2014).

Experiment: label from the status in PepcDB records
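Note: failed if final PepcDB status was selected cloned or expressed and not failed if soluble or beyond.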

Sequence | protein production
MWHSIEQAISVETGKSFYISEKKEISTRPASSSSFTCSYDNKEPPPNLSFKITDGHRSYFLKINNKDYLENFQAEAYSLKQLNSLANIASPNVTAIGTSLDKSFLVLDYIDFSKAKPMLWYQLGQQLAQMHYENRHGQFGWQHDNFIGSTIQPNHWSSNWTTFFSDQRIAWQLQLLSERSIMLGNIEHITQVCHDALLHHQVSPCLVHGDLWQGNTGFSGEKAMIFDPACYYGDREVDIAMTELFGHFPDDFYHGYQAEYPLDDGYEQRKLVYNFYHILNHANIFGGIYIDQAKATLSRIMSLPLHLEHHHHHH | failed
MWLRRKRAPVNGVVTLDRRHLYILPTRGGIGFSVLLATMLLTSLNYAISLGFALTFLLAGIGMGCMWMAYRNLLDLRVSAGPVTPAFVGECAIFTLHVDNQDAAARIGIEARTPLSGADTETAALTLDGVSSGTLPVRLSAIRRGRLVLPRVTLSSRFPFGLFRVWSYADLGLATVVYPAPEASPPPLPRHPQSDDADDGAASFAADDGIDQLRRYRPGDPLHRIAWKHSARTGKWLTRSGHTPQQPSCWIDWNTLPPAMDTEARLSRLCAWVLMAGEVSEIGLRLPGVEITPGRGSAHVRACLEALALWPERRAR | failed
MWNATPSEEPGFNLTLADLDWDASPGNDSLGDELLQLFPAPLLAGVTATCVALFVVGIAGNLLTMLVVSRFRELRTTTNLYLSSMAFSDLLIFLCMPLDLVRLWQYRPWNFGDLLCKLFQFVSESCTYATVLTITALSVERYFAICFPLRAKVVVTKGRVKLVIFVIWAVAFCSAGPIFVLVGVEHENGTDPWDTNECRPTEFAVRSGLLTVMVWVSSIFFFLPVFCLTVLYSLIGRKLWRRRRGDAVVGASLRDQNHKQTVKMLAVVVFAFILCWLPFHVGRYLFSKSFEPGSLEIAQISQYCNLVSFVLFYLSAAINPILYNIMSKKYRVAVFRLLGFEPFSQRKLSTLKDESSRAWTESSINT | failed
MWNATPSEEPGFNLTLADLDWDASPGNDSLGDELLQLFPAPLLAGVTATCVALFVVGIAGNLLTMLVVSRFRELRTTTNLYLSSMAFSDLLIFLCMPLDLVRLWQYRPWNFGDLLCKLFQFVSESCTYATVLTITALSVERYFAICFPLRAKVVVTKGRVKLVIFVIWAVAFCSAGPIFVLVGVEHENGTDPWDTNECRPTEFAVRSGLLTVMVWVSSIFFFLPVFCLTVLYSLIGRKLWRRRRGDAVVGASLRDQNHKQTVKMLGGSQRALRLSLAGPILSLCLLPSL | failed
MWNLTRRQWRQILVTVILALAVLLFFLWPLPKYIEGPGEADNLKSFVTVDKHPDKHKGKYMITSVALAQARPVSYLYAKFNPYYSIESVASVTGGESNATYDKVQNFYMKSAINESIYTAYRAAHKTVKRHYLGIYVLSVDRQSPFAQALKVGDTVTEVNGHHFNSMTGYQRYIQRQKVGQRATITYQRNGKTHHVTAKLMRLPTKKAGIGITLTDNVKVSARPKVQVNPGNIGGPSGGLMFSLQIYTQVTGQDLRHGRKIAGTGTVDGDGNVGEIGGIDKKIIAAKRAGATVFFAPYVKPTKLLLKYEEQHQTNYQLAKATAKKYAPNMKVVPVKSFDDAVHYLRTHR | failed
MWPDRRLIDLFKTEFPIVLAPMAGVMDAELVIAAAQGGALGSLPCAMLSAEKAREQVGLIRQRVKAPVNMNFFCHTPVDLTPEAEARWKQRLAGYYREHGLDPAAPISAANRAPFDAAFCEVVEELKPDVVSFHFGLPEQELLKRVKAAGSLVISSATTVKEAVWLERHGADAVIAQGAEAGGHRGMFLTDKIAEQPGTFALVPQVADAVKVPVIAAGGIADGRGIAAAFALGASGVQIGSAYLRCPESKVSAAGRAALAEGRDDSTVITNVMTGRPARGVQNRLMREAGPISPDAPPFPHAATALGPLKAAAEKQGRVDFTNLWAGQAIALGRELPAAELTRDLAKSALARMKALAG | failed
MWPQDPSRKEVLRFAVSCRILTLMLQALFNAIIPDHHAEAFSPPRLAPSGFVDQLVEGLLGGLSHWDAEHFLFIAEHGYLYEHNFAFFPGFPLALLVGTELLRPLRGLLSLRSCLLISVASLNFLFFMLAAVALHDLGCLVLHCPHQSFYAALLFCLSPANVFLAAGYSEALFALLTFSAMGQLERGRVWTSVLLFAFATGVRSNGLVSVGFLMHSQCQGFFSSLTMLNPLRQLFKLMASLFLSVFTLGLPFALFQYYAYTQFCLPGSARPIPEPLVQLAVDKGYRIAEGNEPPWCFWDVPLIYSYIQDVYWNVGFLKYYELKQVPNFLLAAPVAILVAWATWTYVTTHPWLCLTLGLQRSKNNKTLEKPDLGFLSPQVFVYVVHAAVLLLFGGLCMHVQVLTRFLGSSTPIMYWFPAHLLQDQEPLLRSLKTVPWKPLAEDSPPGQKVPRNPIMGLLYHWKTCSPVTRYILGYFLTYWLLGLLLHCNFLPWT | failed
MWQLLSRLNKNLVLTIPAMMAAGFVFGLVTETGFLKELIIPFTFLMVYPMMVTLKLKKVLEGGDGKAQLFTQFINFAVVPFVAFGLGRLFFADRPYMALGLLLAALVPTSGMTISWTGFARGNLEAAVKMTVVGLILGSIATPFYVQALMGAHVEVDMTGIMKQIAVIVFLPMAVGYATQRYLIAKHGQKGFQEQWAPRFPCLSTLGVLGIVFIAIALKAQAIAARPQDLLAILLPLAILYGINYSLSTVVGRLFLPRGDAIALAYGTVMRNLSIALAVAMNAFGKAGSDAALVIALAYIIQVQSAAWYVKFTGTLFGEAPAPSCPAPRRN | failed
MWSFIQKIFKALIIAPLDFITKYFKSFVLLLIVLVFFSAKESAPSAPPNLAKLYLNGAIFSTEDFDKEVDKILKTPSIKGVLLLIDSPGGAVSASVELSEKIADLKQKMPVLAYARGVMASGSYYAGMQASEVYASKASLIGSIGVIFSGANVENLLNKVGVATQGVHAGEYKEIGTFTRAWKPNEKDFLQNLVNEQYQMFVNDVAKARKLDAKDYKDFAEGKVFSAQKALKLKLIDKISTIKQAQDRLMELSKVKKAYWLEKSPMERFIEKATQSATNIITQAFGYQLLMR | failed
MWTTNIIKTPRGKFEYFLKGEGPPLCVTHLYSEYNDNGNTFANPFTDHYSVYLVNLKGCGNSDSAKNDSEYSMTETIKDLEAIREALYINKWGFAGHSAGGMLALVYATEAQESLTKIIVGGAAASKEYASHKDSIYCSKNVKFNRIVSIMNALNDDSTVQEERKALSREWALMSFYSEEKLEEALKLPNSGKTVGNRLNYFRQVEYKDYDVRQKLKFVKIPSFIYCGKHDVQCPYIFSCEIANLIPNATLTKFEESNHNPFVEEIDKFNQFVNDTL | not failed
MWVKPLREASQGKKEEEIHIKTSSSSSARSLAPLLVLKLIRSLSSSSARLQASQLVLKLLCSSSSSSACPQALQLALKLLCWSSSSSTGPQAPQLVFKLSSSSLSSARLQAPPLNDHLLA | failed
MWVWNMVEIKIVFGSSENMEEIPDNSVHLVVTSPPYYNAPFDFPGLFSSYEEYLNLLRKVGKELMRVLQPGRYACFVTQDVRIEGKLYPIVSDLIHIMVHELGFEYQDKIIWRKPEGYIRISRRSGVLIQHPYPMYYYPDNIYEEVVIFKKPGKFDRSAVPPEIREKSKISISKFQAEKWYLSVWDIKNVLPHEKWSKYTAPFPEELAERLIRLYSYVGETVLDPFLGSGTTCVVSRKLHRNCIGYEIDLELREIIEERLG | failed
MYEFNLVLLLLQQMCVFLVIAWLMSKTRLFIPLMQVTVRLPHKLLCYVTFSIFCIMGTYFGLHIEDSIANTRAIGAVMSGLLGGPVVGGLVGLTGGLHRYSMGGMTALSCMISTIVEGLLGGLVHSVLIRRGRPDKVFSPLTAGAITCVAELVQMLIILLIARPFDDALHLVSNIAAPMMVTNTVGAALFMRILLDKRAMFEKYTSAFSATALKVAASTEGILRQGFNEVNSMKVAQVLYQELDIGAVAITDREKLLAFTGIGDDHHLPGKPISSGYTLKAIETGEVVYADGNEVPYRCSLHPQCKLGSTLVIPLRGENQRVMGTIKLYEAKNRLFSSINRTLGEGIAQLLSAQILAGQYERQKALLTQSEIKLLHAQVNPHFLFNALNTIKAVIRRDSEQASQLVQYLSTFFRKNLKRPSEIVTLADEIEHVNAYLQIEKARFQSRLQVQLDVPSTLSRQKLPAFTLQPIVENAIKHGTSQLLDTGNVAIRARREGQHLMLDIEDNAGLYQPSAGSSGLGMSLVDKRLREHFGDDYGISVACEPDCFTRITLRLPLEEDA | failed
MYFDSHLHSEGLGFSELVKLKENGIKEVCSLAFFPVKPKYPQTMIDVFRKLTEFEPLRCEAAGVKMHPAVGIHPRCIPPDYEFVLGYLEEGEWVAFGEIGLELVTDEEIEVLKSQLELAKRMDVPCIIHTPRGNKLKATRKTLEILESLDFPADLAVIDHVNFETLDMVLETEYWIGLTVQPGKLSAEDAARIVAEHGPERFMLNSDAGYRDVEITTVAEAAVKIEEAVGREEMEKVARENARKFLRVLELEHHHHHH | failed
MYFEIYKDAKGEYRWRLKAANHEIIAQGEGYTSKQNCQHAVDLLKSTTAATPVKEVLEHHHHHH | not failed
MYFLKKIVNLFSSKIESEDNNVKKDDLTQPRKQSPEARKRRNRRIIFWLIILLIIGTIIGVIIYFSVRKEYDNVIVKSAQTEVVNNKKVLYLNTIRPNSTQITRYTIDEDQLLTARVNILNNTNFQIISNASSLGLSRISFNIVREGVEKFKLGETNIYAPISGNTNNQWNWLTSIITQNAGIPSSGFNPQVIISPLISIIFFIIFLYIILRVSKAQSDSLLGTNKANAKLTKSGVRFSDVAGIAEVKEELIEIVDFLKEPKKYVAAGARIPKGVMLYGPPGTGKTLIAKAVAGEANVPFFQTTGSSFEDTFVGVGARRVRELFEKARKSAPAIIFIDEIDSVAKKRGNSLTAVQDQTINQLLSELDGFDTSSGVIVMAATNRLDTLDDAILRPGRFDRQISVNLPDILEREQILRIHSRNKNLSAKVSLEDIARRTAGFSGAQLENVLNEAALLSVRDKATSIHMNHLDEAIDRVIAGPSRPNKVISEREREQVSYHEAGHALIGLYSPGADVVQKITIVARGRAAGYTLQTPERNENILQNKTELISRVRTALGGRAAEELIYGPNEITTGAANDFYKITNIVRAMVASFGMTDVGLTQYIATEGVDNPYRNSYSEQTALAIDIEIEKIIQREYKIVKEMINEHREELELIVQTLLELETILKPQIDYIHQYKQLPPEVIANKNKREASQKQANSSVEEAKVVDDEESIKDKEKDQKSN | failed
MYGGAGLYKFDKLSDWMVYLDRLSKDKPVEEGWTATVFLCIRQSDKRMIGICNVRHHLNSLGLLNVSGHIGYSIRPDERKKGYAKVQLRLALLEAKKLGIDKVLVTCADWNIGSERTILANGGVYEDSRLDESTGNMMKRYWINVTERNSI | failed
MYHGMNPSNGDGFLEQQQQQQQPQSPQRLLAVILWFQLALCFGPAQLTGGFDDLQVCADPGIPENGFRTPSGGVFFEGSVARFHCQDGFKLKGATKRLCLKHFNGTLGWIPSDNSICVQEDCRIPQIEDAEIHNKTYRHGEKLIITCHEGFKIRYPDLHNMVSLCRDDGTWNNLPICQGCLRPLASSNGYVNISELQTSFPVGTVISYRCFPGFKLDGSAYLECLQNLIWSSSPPRCLALEAQVCPLPPMVSHGDFVCHPRPCERYNHGTVVEFYCDPGYSLTSDYKYITCQYGEWFPSYQVYCIKSEQTWPSTHETLLTTWKIVAFTATSVLLVLLLVILARMFQTKFKAHFPPRGPPRSSSSDPDFVVVDGVPVMLPSYDEAVSGGLSALGPGYMASVGQGCPLPVDDQSPPAYPGSGDTDTGPGESETCDSVSGSSELLQSLYSPPRCQESTHPASDNPDIIASTAEEVASTSPGIDIADEIPLMEEDP | failed
MYIKKIVIGLLFVTLVGCSSSPDTEETKEKILIKTNNYSDLIIFYKNQLKVSEDPYTREKLAQAYLDSGDPDSALFAIQYLNEDDDSRSISSFLIEANAQLECGMLEPALDTVNRVYKLNEDNPEIENLLGVIYASKRDLDKSRHYFNLARKHLYSDITIKNNLAILNIIEGKYDQAVKLLLPIYMSNKNDALVQANLMLAMAKAGDLEFMEKVLSPQFSKQEIERRYSILKNTESHRDDTNLFGAD | failed
